From patent US8697651B2, “Amyloid β fibrillogenesis-inhibiting peptide” (Kagoshima University, priority 2006, dated 2014)
No end group written: not given here. *: point of attachment. Biotin = O=C1N[C@H]2[C@H](CS[C@H]2CCCCC(=O)*)N1

Tests used:
Aβ1-42 peptide = target: T1, Aβ1-42 peptide (Homo sapiens, UniProt P05067); assay: Experiment of inhibition of amyloid β (Aβ1-42) fibrillogenesis, thioflavine T fluorescence; assay type: biochemical; details: peptide 1.65, 16.5, 33 nM added to 40 μM Aβ1-42 in 20 mM phosphate buffer pH 7.0; 0, 6, 24 hours; thioflavine T fluorescence 482 nm (FIG. 8)
T1 construct: the Aβ1-42 peptide diluted to 40 μM using 20 mM phosphate buffer
Protocol: Examples of a method for examining whether or not the obtained peptide has an activity of inhibiting amyloid β fibrillogenesis include the thioflavine T (ThT) method (H. Levine, III, Protein Science […]: 404-410 (1993)).
The synthesized peptide (TAT-B6-L1, B6-L1-TAT, TAT-B7-C15, or TAT-B7-S15) was added at varying concentrations (1.65 nM, 16.5 nM, and 33 nM) to the Aβ1-42 peptide diluted to 40 μM using 20 mM phosphate buffer, pH 7.0. At 0, 6, and 24 hours later, 10 μl of a sample was collected. After addition of 90 μl of 11 μM thioflavine T (Sigma)/phosphate buffer, fluorescence intensity at 482 nm generated by excitation light at 450 nm was measured using a multilabel plate counter Wallac 1420 ARVO sx (Perkin-Elmer; Wellesley, Mass.).
Results of measuring an activity of inhibiting Aβ1-42 fibrillogenesis by fusion peptides of TAT and B6-L1, B7-C15, or B7-S15 are shown in FIG. 8. The experiment of inhibition of fibrillogenesis was conducted according to the procedures described in the experiment of inhibition of fibrillogenesis above.

B6 scFv = assay: ELISA: binding of B6 scFv to plate-coated synthesized TAT fusion peptide; set-up: species or system human; details: peptide coated 200 ng/well; B6 scFv at varying concentrations (FIG. 7)
Text: The B6-L1, B7-C15, and B7-S15 sequences having the TAT sequence fused at the amino terminus are referred to as TAT-B6-L1, TAT-B7-C15, and TAT-B7-S15, respectively. The B6-L1 sequence having the TAT sequence fused at the carboxyl terminus is referred to as B6-L1-TAT. The TAT sequence is a peptide sequence having the function of passing through the blood-brain barrier (P. Jarver and Ulo Langel, The use of cell-penetrating peptides as a tool for gene regulation, DDT, 9: 395-402, 2004). These peptides were biotinylated at their amino termini. Binding of the peptides was quantified using avidin labeled with an enzyme.
(5) The fusion peptide of TAT and B6-L1 was recognized by B6 scFv (FIG. 7). An ELISA plate was coated with the synthesized peptide TAT-B6-L1 or B6-L1-TAT under conditions of 200 ng/well. After addition of B6 scFv at varying concentrations, its binding activity was studied. A control peptide used was an unrelated peptide (GSGGGSCGYWRSEWGLCG (SEQ ID NO: 34)). […] (6) Activity of Inhibiting Aβ1-42 Fibrillogenesis by Fusion Peptide of TAT and B6-L1, B7-C15, or B7-S15

[1] = target: T2, Aβ oligomer or Aβ fibers (Aβ1-42) (Homo sapiens, UniProt P05067); assay: Experiment of precipitation of Aβ conformers (Aβ oligomer and Aβ fibers) by biotinylated peptide with streptavidin-magnet beads, Western blot; assay type: binding; details: Aβ1-42 40 μM, 1.5 hours after dissolution, peptide 1:1, supernatant vs pellet (FIG. 9)
T2 construct: the Aβ1-42 peptide diluted to 40 μM using 20 mM phosphate buffer
Protocol: Aβ1-42 was dissolved at a concentration of 40 μM in 20 mM phosphate buffer, pH 7.0. At 1.5 hours later, the solution was reacted at 37° C. for 1 hour by the addition of the TAT-B6-L1 or TAT-B7-C15 peptide adjusted to 40 μM at a ratio of 1:1 by liquid volume (final concentration: Aβ [20 μM]/synthesized peptide [20 μM]). After reaction, an aliquot thereof was sampled as a sample before immunoprecipitation (“Before precipitation”), and the remaining sample was reacted with M-280 streptavidin-magnet beads (Dynal Biotech, Oslo, Norway) adjusted to 20 μg/μl on ice for 1 hour at a ratio of 1:1 by liquid volume (final concentration: Aβ [10 μM]/synthesized peptide [10 μM]/beads [10 μg/μl]). After reaction, the beads were precipitated using a magnet to obtain “Supernatant”. To the precipitated beads, PBS was added in a liquid volume equal to the collected supernatant to obtain “Pellet”. Each obtained sample was electrophoresed and subjected to Western blot analysis using anti-Aβ antibodies.
Aβ1-42 was dissolved at a concentration of 40 μM in 20 mM phosphate buffer, pH 7.0. At 1.5 hours later, the biotinylated TAT-B6-L1 or TAT-B7-C15 peptide was added thereto, and the conjugates were precipitated using streptavidin-magnet beads. Bands derived from Aβ oligomer, Aβ fibers, etc., could be confirmed before precipitation. Aβ oligomer or Aβ fibers were not confirmed in the supernatant from precipitation using the TAT-B6-L1 or TAT-B7-C15 peptide but could be confirmed in the pellet.

T1 sequence (P05067 672-713 limits assumed): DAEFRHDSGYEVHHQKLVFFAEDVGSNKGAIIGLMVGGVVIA
T2 sequence (P05067 672-713 limits assumed): as above
B6 scFv, sequence (as listed by the source): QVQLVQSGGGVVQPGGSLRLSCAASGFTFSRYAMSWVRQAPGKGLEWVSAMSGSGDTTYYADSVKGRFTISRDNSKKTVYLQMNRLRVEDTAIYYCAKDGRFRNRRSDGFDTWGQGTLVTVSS
B6 scFv, sequence (as listed by the source): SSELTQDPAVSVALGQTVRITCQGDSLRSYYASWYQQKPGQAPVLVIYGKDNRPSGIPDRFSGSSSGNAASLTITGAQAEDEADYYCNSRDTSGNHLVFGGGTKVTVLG

Substance | activity of inhibiting Aβ1-42 fibrillogenesis (Aβ1-42 peptide) | binding of B6 scFv to the coated peptide (B6 scFv) | binding/precipitation of Aβ oligomer or Aβ fibers by the peptide [1]
B6-L1-TAT: B6-L1 sequence having the TAT sequence fused at the carboxyl terminus; SEQ ID NO: 25 (Biotin-GMLDIFAPIRHVYGRKKRRQRRR) | demonstrated to have the activity of inhibiting fibrillogenesis | Binding reaction dependent on the amount of B6 scFv was confirmed | 
GSGGGSCGYWRSEWGLCG [control peptide, reference compound] | exhibited no inhibiting activity |  | no confirmed precipitation reaction
TAT-B6-L1: B6-L1 sequence having the TAT sequence fused at the amino terminus; SEQ ID NO: 24 (Biotin-YGRKKRRQRRRGMLDIFAPIRHV) | demonstrated to have the activity of inhibiting fibrillogenesis | Binding reaction dependent on the amount of B6 scFv was confirmed | Aβ oligomer or Aβ fibers formed on 1.5 hours after dissolution of Aβ1-42 bind to the TAT-B6-L1 or TAT-B7-C15 peptide
TAT-B7-C15: B7-C15 sequence (glycine added to carboxyl terminus) having the TAT sequence fused at the amino terminus; SEQ ID NO: 26 (Biotin-YGRKKRRQRRRCYGTKPWMCG; cysteine pairing not given here) | demonstrated to have the activity of inhibiting fibrillogenesis |  | Aβ oligomer or Aβ fibers formed on 1.5 hours after dissolution of Aβ1-42 bind to the TAT-B6-L1 or TAT-B7-C15 peptide
TAT-B7-S15: B7-S15 sequence having the TAT sequence fused at the amino terminus; SEQ ID NO: 27 (Biotin-YGRKKRRQRRRSYGTKPWMSG) | demonstrated to have the activity of inhibiting fibrillogenesis |  | 
